# B1: WRKY DNA-binding domain of the Arabidopsis RRS1-R immune receptor (domain or fragment)
# chain: SESKVKKVVSIPAIDEGDLWTWRKYGQKDILGSRFPRGYYRCAYKFTHGCKATKQVQRSETDSNMLAITYLSEHNHPRPT
# Molecular target: PopP2 (149-488), AVI-tagged and biotinylated, the 'WT' of the BLI assay (Ralstonia solanacearum, UniProt Q8Y125 149-488)
# Assay: BLI
binder,measurement,value
B1,Kd,13 nM
